The assay deals with CD4+ T-cells and dendritic cells. The assay can be described thus: I-MUNE assay: CD4+ T-cell proliferation to 15-mer peptide sets presented by dendritic cells. The class given is cell-based, human. The arrangement: Structure Value: scale not given here. Conditions: for Responses per peptide: positive response SI of 2.95 or greater, community donors; for Response/Peptide: SI>2.95; for background response: average percent responders per peptide, +/− sd where given; for Prominent responses noted at amino acids: peptide regions of the protein. As to the method:
All peptides were obtained from a commercial source (Mimotopes, San Diego, C-A). For the I-MUNE® assay system described herein, 15-mer peptides offset by 3 amino acids that described the entire sequence of the proteins of interest were synthesized in a multipin format (See, Maeji et al., J. Immunol. Meth., 134:23-33 [1990]). Peptides were resuspended in DMSO at approximately 1 to 2 mg/ml, and stored at −70° C. prior to use. Each peptide was tested at least in duplicate, although for small peptide sets (e.g., Ber e 1), the peptides were routinely tested in triplicate.
Volunteer donor human blood buffy coat samples were obtained from two commercial sources (Stanford Blood Center, Palo Alto, Calif., and the Sacramento Medical Foundation, Sacramento, Calif.). Buffy coat samples were further purified by density separation. Each sample was HLA typed for HLA-DR and HLA-DQ using a commercial PCR-based kit (Bio-Synthesis).
Monocytes were purified by adherence to plastic in AIM V medium (Gibco/Life Technologies). Adherent cells were cultured in AIM V media containing 500 units/ml of recombinant human IL-4 (Endogen) and 800 units/ml recombinant human GM-CSF (Endogen) for 5 days. On day 5, recombinant human IL-1α (Endogen) and recombinant human TNF-α (Endogen) were added to 50 units/ml and 0.2 units/ml, respectively. On day 7, the fully matured dendritic cells were treated with 50 μg/ml mitomycin C (Sigma) for 1 hour at 37° C. Treated dendritic cells were dislodged with 50 mM EDTA in PBS, washed in AIM V medium, counted, and resuspended in AIM V media at 2×10^5 cells/ml.
CD4^+ T-cells were purified by negative selection from frozen aliquots of human peripheral blood mononuclear cells (PBMC) using Cellect CD4 columns (Cedarlane). […] CD4^+ T-cells were resuspended in AIM V media at 2×10^6 cells per ml.
CD4^+ T-cells and dendritic cells were plated in round-bottomed 96 well format plates at 100 μl of each cell mix per well. Peptide was added to a final concentration of approximately 5 ug/ml in 0.25-0.5% DMSO. Control wells contained 0.5% DMSO without added peptide. Each peptide was tested in duplicate. Cultures were incubated at 37° C., in 5% CO2 for 5 days. On day 5, 0.5 uCi of tritiated thymidine (NEN DuPont) was added to each well. On day 6, the cultures were harvested onto glass fiber mats using a TomTec manual harvester (TomTec), then processed for scintillation counting. Proliferation was assessed by determining the average counts per minute (CPM) value for each set of duplicate wells (TriLux Beta). This method is also described in U.S. Pat. No. 6,218,165 and Stickler et al., J. Immunother. 23: 654-660 (2000), both of which are herein incorporated by reference.
For each individual buffy coat sample, the average CPM values obtained in the I-MUNE® assay for all of the peptides were analyzed. The average CPM values for each peptide were divided by the average CPM value for the control (DMSO only) wells to determine the “stimulation index” (SI). Donors were tested with each peptide set until an average of at least two responses per peptide were compiled. The data for each protein was graphed showing the percent responders to each peptide within the set. A positive response was collated if the SI value was equal to or greater than 2.95. This value was chosen as it approximates a difference of three standard deviations in a normal population distribution. For each protein assessed, positive responses to individual peptides by individual donors were compiled. To determine the background response for a given protein, the percent responders for each peptide in the set were averaged and a standard deviation was calculated. SI values for each donor were compiled for each peptide set, and the percent of responders reported.

The mark [1] stands for this setting: Table 1, from compiled responses.
The mark [2] stands for this setting: Table 3, Stanford and Sacramento donors.

B1: ALCALASE ®: ALCALASE® enzyme, commercially available from Novo, Swissprot accession number P00780 (protein, UniProt P00780 106-379, looked up)
Subtilisin Carlsberg: AQTVPYGIPLIKADKVQAQGFKGANVKVAVLDTGIQASHPDLNVVGGASFVAGEAYNTDGNGHGTHVAGTVAALDNTTGVLGVAPSVSLYAVKVLNSSGSGSYSGIVSGIEWATTNGMDVINMSLGGASGSTAMKQAVDNAYAKGVVVVAAAGNSGSSGNTNTIGYPAKYDSVIAVGAVDSNSNRASFSSVGAELEVMAPGAGVYSTYPTNTYATLNGTSMASPHVAGAAALILSKHPNLSASQVRNRLSSTATYLGSSFYYGKGLINVEAAAQ
As to B1, the background response was determined as 2.35% and the “Prominent responses noted at amino acids” value is 19-33. Also, where the note is “Table 1”, the “Number of epitope regions” value came to 1 and the Responses per peptide worked out at 2.16. This molecule registered a Structure Value under setting [1] of 0.72. Moreover, for the setting “Table 3”, the Background % came out at 2.35% and the Response/Peptide is 2.16. Besides, the “Structure Value” under setting [2] turned out to be 0.72. For the setting “compiled responses”, this molecule yielded a Structure Value of 0.72.

B2: BPN′ Y217L: B. amyloliquifaciens subtilisin BPN′ Y217L, Swissprot accession number P00782 (protein, UniProt P00782 108-382, looked up, variant Y217L)
Subtilisin BPN': AQSVPYGVSQIKAPALHSQGYTGSNVKVAVIDSGIDSSHPDLKVAGGASMVPSETNPFQDNNSHGTHVAGTVAALNNSIGVLGVAPSASLYAVKVLGADGSGQYSWIINGIEWAIANNMDVINMSLGGPSGSAALKAAVDKAVASGVVVVAAAGNEGTSGSSSTVGYPGKYPSVIAVGAVDSSNQRASFSSVGPELDVMAPGVSIQSTLPGNKYGALNGTSMASPHVAGAAALILSKHPNWTNTQVRSSLENTTTKLGDSFYYGKGLINVQAAAQ
B2: the background response stood at 3.62%. Further, under “Table 1”, the “Number of epitope regions” value was 2 and the Responses per peptide was 3.65. The Structure Value under setting [1] amounted to 0.53. Where the note is “Table 3”, this molecule yielded a Background % of 3.65% and a Response/Peptide of 3.61. In addition, the “Structure Value” under setting [2] amounted to 0.65. Also, the “Prominent Epitope” value (Table 4, number of prominent epitopes) was 2. For the same molecule, under “Table 4, parent, dataset of 113 individuals”, the “Structure Value” was found to be 0.53. In addition, the “SIV (structure index value)” value (Table 21, parent, I-MUNE assay data) is reported as 0.53. The molecule further showed a Structure Value (compiled responses) of 0.53.

B3: Amylase: Bacillus licheniformis alpha amylase, industrial enzyme, Swissprot accession number P06278 (protein, UniProt P06278 30-512, looked up)
Alpha-amylase: ANLNGTLMQYFEWYMPNDGQHWKRLQNDSAYLAEHGITAVWIPPAYKGTSQADVGYGAYDLYDLGEFHQKGTVRTKYGTKGELQSAIKSLHSRDINVYGDVVINHKGGADATEDVTAVEVDPADRNRVISGEHRIKAWTHFHFPGRGSTYSDFKWHWYHFDGTDWDESRKLNRIYKFQGKAWDWEVSNENGNYDYLMYADIDYDHPDVAAEIKRWGTWYANELQLDGFRLDAVKHIKFSFLRDWVNHVREKTGKEMFTVAEYWQNDLGALENYLNKTNFNHSVFDVPLHYQFHAASTQGGGYDMRKLLNSTVVSKHPLKAVTFVDNHDTQPGQSLESTVQTWFKPLAYAFILTRESGYPQVFYGDMYGTKGDSQREIPALKHKIEPILKARKQYAYGAQHDYFDHHDIVGWTREGDSSVANSGLAALITDGPGGAKRMYVGRQNAGETWHDITGNRSEPVVINSEGWGEFHVNGGSVSIYVQR
Consider B3, for which the background response was 2.80+/−3.69%. For the setting “Table 1”, the “Number of epitope regions” value is 3 and the Responses per peptide was 2.29. Moreover, the Structure Value under setting [1] was 0.81. For the same molecule, under “Table 3”, the Background % stood at 2.79% and the Response/Peptide worked out at 2.29. For the same molecule, the “Structure Value” under setting [2] was determined as 0.81. This molecule had a Structure Value (compiled responses) of 0.81.

B4: B. lentus subtilisin: Bacillus lentus subtilisin, industrial protease, Swissprot accession number P29600 (protein, UniProt P29600 1-269, looked up)
Subtilisin Savinase: AQSVPWGISRVQAPAAHNRGLTGSGVKVAVLDTGISTHPDLNIRGGASFVPGEPSTQDGNGHGTHVAGTIAALNNSIGVLGVAPSAELYAVKVLGASGSGSVSSIAQGLEWAGNNGMHVANLSLGSPSPSATLEQAVNSATSRGVLVVAASGNSGAGSISYPARYANAMAVGATDQNNNRASFSQYGAGLDIVAPGVNVQSTYPGSTYASLNGTSMATPHVAGAAALVKQKNPSWSNVQIRNHLKNTATSLGSTNLYGSGLVNAEAATR
For B4, the background response was 3.45+/−2.90% and the “Prominent responses noted at amino acids” value is reported as 160-174. Moreover, for the setting “Table 1”, the “Number of epitope regions” value turned out to be 1 and the Responses per peptide was determined as 2.24. For the same molecule, the Structure Value under setting [1] amounted to 0.64. Under “Table 3”, this molecule had a Background % of 3.45% and a Response/Peptide of 2.24. Further, the “Structure Value” under setting [2] is given as 0.65. The Structure Value (compiled responses) worked out at 0.64.

B5: sTNFR1: soluble tumor necrosis factor receptor 1 (protein, UniProt P19438 30-211, looked up)
extracellular domain: LVPHLGDREKRDSVCPQGKYIHPQNNSICCTKCHKGTYLYNDCPGPGQDTDCRECESGSFTASENHLRHCLSCSKCRKEMGQVEISSCTVDRDTVCGCRKNQYRHYWSENLFQCFNCSLCLNGTVHLSCQEKQNTVCTCHAGFFLRENECVSCSNCKKSLECTKLCLPQIENVKGTEDSGTT
modifications: extracellular domain
For the setting “Table 3”, B5 gave a Background % of 4.2% and a Response/Peptide of 2.9. The “Structure Value” under setting [2] stood at 0.47. Under “Table 5, background response value”, the “Background +/− sd” value is given as 2.23 +/− 1.95. The same molecule returned a Responses/peptide found (Table 5, determined experimentally) of 1.54.
